Assay [1] addresses T1, FcγRI (mouse, UniProt P26151).
T1 construct: also called mouse FcγRI; mFcγRI
T1 sequence (receptor, looked up): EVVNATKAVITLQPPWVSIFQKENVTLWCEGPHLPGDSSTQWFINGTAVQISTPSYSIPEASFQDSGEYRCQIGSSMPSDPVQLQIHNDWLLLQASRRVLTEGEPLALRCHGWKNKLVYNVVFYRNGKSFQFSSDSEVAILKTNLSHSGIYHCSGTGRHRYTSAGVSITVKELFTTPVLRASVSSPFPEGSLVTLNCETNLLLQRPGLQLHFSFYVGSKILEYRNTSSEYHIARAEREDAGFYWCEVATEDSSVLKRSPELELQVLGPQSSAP
As to the kind of experiment: no assay stated; drawn summary table of graded binding (- to ++++), for which the text cites Nimmerjahn et al. 2005.

For assay [2], the target named is T2, FcγRIII (mouse, UniProt P08508).
T2 construct: also called mouse FcγRIII; mFcγRIII
T2 sequence (receptor, looked up): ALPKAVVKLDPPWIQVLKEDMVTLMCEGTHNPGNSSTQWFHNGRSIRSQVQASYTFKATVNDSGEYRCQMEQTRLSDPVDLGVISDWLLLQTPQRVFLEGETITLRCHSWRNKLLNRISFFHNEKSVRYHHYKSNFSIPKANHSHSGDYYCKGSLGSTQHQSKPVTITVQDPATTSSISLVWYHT
The description is as above.

The target of assay [3] is T3, FcγRIIb (mouse, UniProt P08101).
T3 construct: also called mouse FcγRIIb; mFcγRIIB
T3 sequence (receptor, looked up): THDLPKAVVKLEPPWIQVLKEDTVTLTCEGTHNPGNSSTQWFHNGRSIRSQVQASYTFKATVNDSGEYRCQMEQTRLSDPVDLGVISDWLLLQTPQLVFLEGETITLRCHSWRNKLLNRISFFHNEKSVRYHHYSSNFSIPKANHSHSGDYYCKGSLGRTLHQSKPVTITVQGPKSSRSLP
The assay is described as above.

The target of assay [4] is T4, recombinant human SIRPα-hFc (SinoBiological 11612-H02H1) (human, UniProt P78324 31-370).
T4 construct: Bought fusion protein; also called hSIRPα; recombinant hSIRPα; not shown: human Fc (hFc)
T4 sequence (P78324 31-370 limits assumed): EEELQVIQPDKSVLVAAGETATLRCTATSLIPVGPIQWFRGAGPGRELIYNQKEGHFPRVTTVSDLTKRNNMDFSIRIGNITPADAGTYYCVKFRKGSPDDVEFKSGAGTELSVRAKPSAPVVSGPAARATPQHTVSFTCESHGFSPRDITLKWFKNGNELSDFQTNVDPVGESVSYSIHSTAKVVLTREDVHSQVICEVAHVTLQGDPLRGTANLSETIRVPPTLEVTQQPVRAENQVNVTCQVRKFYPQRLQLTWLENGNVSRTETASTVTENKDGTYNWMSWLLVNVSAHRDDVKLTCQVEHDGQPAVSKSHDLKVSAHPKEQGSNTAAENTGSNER
As to the kind of experiment: flow cytometry: recombinant hSIRPα incubated with RBCs of WT mice.

Assay [5] deals with T5, FcγRIV.
T5 construct: also called mouse FcγRIV; mFcγRIV
T5 chain: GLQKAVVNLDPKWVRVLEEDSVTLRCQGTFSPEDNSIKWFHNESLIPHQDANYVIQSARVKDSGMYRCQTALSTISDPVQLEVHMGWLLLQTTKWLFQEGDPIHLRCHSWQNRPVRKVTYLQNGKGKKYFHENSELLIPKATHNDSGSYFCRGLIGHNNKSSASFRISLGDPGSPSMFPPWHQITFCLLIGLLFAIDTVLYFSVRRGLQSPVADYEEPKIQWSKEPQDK
Briefly: no assay stated; drawn summary table of graded binding (- to ++++), for which the text cites Nimmerjahn et al. 2005.

For assay [6], the target named is T6, recombinant mouse CD47 (SinoBiological 57231-MNAH) (mouse, UniProt Q61735 19-140, limits assumed).
T6 construct: Bought protein coated on ELISA plates at 1 ug/mL; also called mCD47
T6 sequence (looked up): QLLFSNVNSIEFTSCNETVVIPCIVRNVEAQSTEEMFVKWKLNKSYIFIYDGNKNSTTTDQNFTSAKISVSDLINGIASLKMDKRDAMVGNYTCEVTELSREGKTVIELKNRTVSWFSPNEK
Briefly: ELISA on plate-coated recombinant mouse CD47 (1 ug/mL), HRP-conjugated anti-IgG, absorbance 450 nm.

Assay [7] has as its target T7, FcγRI (human, UniProt P12314).
T7 construct: also called human FcγRI; hFcγRI
As to the kind of experiment: no assay stated; drawn summary table of graded binding (- to ++++), for which the text cites Weitzenfeld et al. 2019.

The target in assay [8] is T8, FcγRIIb (human, UniProt P31994).
T8 construct: also called human FcγRIIb; hFcγRIIB
T8 sequence (receptor, looked up): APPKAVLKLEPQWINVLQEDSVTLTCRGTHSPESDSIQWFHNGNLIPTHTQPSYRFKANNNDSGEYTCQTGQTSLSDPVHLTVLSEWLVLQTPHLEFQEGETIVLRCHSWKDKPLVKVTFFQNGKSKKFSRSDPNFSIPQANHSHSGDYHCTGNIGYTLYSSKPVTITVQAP
The description is as above.

T7 sequence (P12314 16-288 limits assumed): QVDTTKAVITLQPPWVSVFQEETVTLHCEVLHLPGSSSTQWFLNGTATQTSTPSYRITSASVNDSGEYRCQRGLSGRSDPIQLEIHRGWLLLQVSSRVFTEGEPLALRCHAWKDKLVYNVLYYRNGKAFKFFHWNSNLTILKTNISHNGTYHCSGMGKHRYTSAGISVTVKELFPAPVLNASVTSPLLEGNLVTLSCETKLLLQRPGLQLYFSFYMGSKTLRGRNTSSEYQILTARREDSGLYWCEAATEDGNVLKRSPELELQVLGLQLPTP

B1: IgG2a (antibody)
heavy chain constant region: TTAPSVYPLAPVCGGTTGSSVTLGCLVKGYFPEPVTLTWNSGSLSSGVHTFPALLQSGLYTLSSSVTVTSNTWPSQTITCNVAHPASSTKVDKKIEPRVPITQNPCPPLKECPPCAAPDLLGGPSVFIFPPKIKDVLMISLSPMVTCVVVDVSEDDPDVQISWFVNNVEVHTAQTQTHREDYNSTLRVVSALPIQHQDWMSGKEFKCKVNNRALPSPIEKTISKPRGPVRAPQVYVLPPPAEEMTKKEFSLTCMITGFLPAEIAVDWTSNGRTEQNYKNTATVLDSDGSYFMYSKLRVQKSTWERGSLFACSVVHEGLHNHLTTKTISRSLGK
notes: The variable region is not specified there; also called mIgG2a; mouse IgG2a subclass (Fc format)
With B1, the binding result in assay [1], in assay [2] and in assay [3] was “binds” throughout.

B2: mouse CD47 on RBCs of WT (C57BL/6J) mice (receptor, UniProt Q61735 19-303, looked up)
chain: QLLFSNVNSIEFTSCNETVVIPCIVRNVEAQSTEEMFVKWKLNKSYIFIYDGNKNSTTTDQNFTSAKISVSDLINGIASLKMDKRDAMVGNYTCEVTELSREGKTVIELKNRTVSWFSPNEKILIVIFPILAILLFWGKFGILTLKYKSSHTNKRIILLLVAGLVLTVIVVVGAILLIPGEKPVKNASGLGLIVISTGILILLQYNVFMTAFGMTSFTIAILITQVLGYVLALVGLCLCIMACEPVHGPLLISGLGIIALAELLGLVYMKFVASNQRTIQPPRNR
notes: whole, on cells; The legend names the cells (RBCs from WT mice); also called mCD47 on WT RBCs
As for B2, the binding result in assay [4] was “no binding”.

B3: IgG1 D265A (antibody)
heavy chain constant region: TKGPSVYPLAPGSAAQTNSMVTLGCLVKGYFPEPVTVTWNSGSLSSGVHTFPAVLQSDLYTLSSSVTVPSSTWPSQTVTCNVAHPASSTKVDKKIVPRDCGCKPCICTVPEVSSVFIFPPKPKDVLTITLTPKVTCVVVAISKDDPEVQFSWFVDDVEVHTAQTKPREEQINSTFRSVSELPIMHQDWLNGKEFKCRVNSAAFPAPIEKTISKTKGRPKAPQVYTIPPPKEQMAKDKVSLTCMITNFFPEDITVEWQWNGQPAENYKNTQPIMDTDGSYFVYSKLNVQKSNWEAGNTFTCSVLHEGLHNHHTEKSLSHSPGK
notes: also called mIgG1-D265A; mouse IgG1 D265A (Fc format)
Regarding B3, the binding result in assay [1], in assay [2], in assay [5] and in assay [3] was “no binding” each time.

B4: MIAP301-mIgG1-D265A (antibody)
heavy: QVKLLQSGAALVKPGASVKMSCQASGYSFTDYWVTWVKQSHGQSLEWIGEIYPSNTVTNFNDNFKGKATLTVDKSTSTAYMELSRLTSEDSAIYYCTRLGNSGYRVGWFLYWGQGTLVTVISASTKGPSVYPLAPGSAAQTNSMVTLGCLVKGYFPEPVTVTWNSGSLSSGVHTFPAVLQSDLYTLSSSVTVPSSTWPSQTVTCNVAHPASSTKVDKKIVPRDCGCKPCICTVPEVSSVFIFPPKPKDVLTITLTPKVTCVVVAISKDDPEVQFSWFVDDVEVHTAQTKPREEQINSTFRSVSELPIMHQDWLNGKEFKCRVNSAAFPAPIEKTISKTKGRPKAPQVYTIPPPKEQMAKDKVSLTCMITNFFPEDITVEWQWNGQPAENYKNTQPIMDTDGSYFVYSKLNVQKSNWEAGNTFTCSVLHEGLHNHHTEKSLSHSPGK
VL: SDTVLTQSPALAVSPGERVTISCKASESVSSHMHWYQQKPGQQPKLLIYKASNLASGVPARFSGSGSGTDFTLTIDPVEADDTATYFCQQGWNGPFTFGAGTRLELKRAVD
notes: Heavy chain assembled from the VH entry and the constant region entry named for the Fc format; also called mIgG1-D265A Fc variant of MIAP301
For B4, in assay [6], the binding result is on record as “binds”.

B5: MIAP301-mIgG2a (antibody)
heavy: QVKLLQSGAALVKPGASVKMSCQASGYSFTDYWVTWVKQSHGQSLEWIGEIYPSNTVTNFNDNFKGKATLTVDKSTSTAYMELSRLTSEDSAIYYCTRLGNSGYRVGWFLYWGQGTLVTVISASTTAPSVYPLAPVCGGTTGSSVTLGCLVKGYFPEPVTLTWNSGSLSSGVHTFPALLQSGLYTLSSSVTVTSNTWPSQTITCNVAHPASSTKVDKKIEPRVPITQNPCPPLKECPPCAAPDLLGGPSVFIFPPKIKDVLMISLSPMVTCVVVDVSEDDPDVQISWFVNNVEVHTAQTQTHREDYNSTLRVVSALPIQHQDWMSGKEFKCKVNNRALPSPIEKTISKPRGPVRAPQVYVLPPPAEEMTKKEFSLTCMITGFLPAEIAVDWTSNGRTEQNYKNTATVLDSDGSYFMYSKLRVQKSTWERGSLFACSVVHEGLHNHLTTKTISRSLGK
VL: B4 VL
notes: Heavy chain assembled from the VH entry and the constant region entry named for the Fc format; also called mIgG2a Fc variant of MIAP301; anti-mCD47 ab clone MIAP301 (mIgG2a Fc)
Regarding B5, in assay [6], the binding result is reported as “binds”.

B6: MIAP301-mIgG1 (antibody)
heavy: QVKLLQSGAALVKPGASVKMSCQASGYSFTDYWVTWVKQSHGQSLEWIGEIYPSNTVTNFNDNFKGKATLTVDKSTSTAYMELSRLTSEDSAIYYCTRLGNSGYRVGWFLYWGQGTLVTVISAS
VL: B4 VL
notes: also called mIgG1 Fc variant of MIAP301; not shown: mouse IgG1 heavy chain constant region, wild type
As to B6, the binding result in assay [6] was “binds”.

B7: 5F9-GAALIE (antibody, human IgG1)
heavy chain: QVQLVQSGAEVKKPGASVKVSCKASGYTFTNYNMHWVRQAPGQRLEWMGTIYPGNDDTSYNQKFKDRVTITADTSASTAYMELSSLRSEDTAVYYCARGGYRAMDYWGQGTLVTVSSASTKGPSVFPLAPSSKSTSGGTAALGCLVKDYFPEPVTVSWNSGALTSGVHTFPAVLQSSGLYSLSSVVTVPSSSLGTQTYICNVNHKPSNTKVDKRVEPKSCDKTHTCPPCPAPELLAGPSVFLFPPKPKDTLMISRTPEVTCVVVDVSHEDPEVKFNWYVDGVEVHNAKTKPREEQYNSTYRVVSVLTVLHQDWLNGKEYKCKVSNKALPLPEEKTISKAKGQPREPQVYTLPPSREEMTKNQVSLTCLVKGFYPSDIAVEWESNGQPENNYKTTPPVLDSDGSFFLYSKLTVDKSRWQQGNVFSCSVMHEALHNHYTQKSLSLSPGK
light chain: DIVMTQSPLSLPVTPGEPASISCRSSQSIVYSNGNTYLGWYLQKPGQSPQLLIYKVSNRFSGVPDRFSGSGSGTDFTLKISRVEAEDVGVYYCFQGSHVPYTFGQGTKLEIKVDAPSVFIFPPSDEQLKSGTASVVCLLNNFYPREAKVQWKVDNALQSGNSQESVTEQDSKDSTYSLSSTLTLSKADYEKHKVYACEVTHQGLSSPVTKSFNRGEC
notes: also called 5F9-hIgG1-GAALIE; GAALIE 5F9 ab
For B7, the binding result in assay [7] and in assay [8] was “binds” each time.

The values are drawn from patent publication US20250154253A1 (ROCKEFELLER UNIVERSITY, published 2025).
